According to PMC9358478 (The Journal of Biological Chemistry, 2022):

Molecular target: T1, full-length recombinant human TG2 (human, UniProt P21980 1-687)
T1 sequence: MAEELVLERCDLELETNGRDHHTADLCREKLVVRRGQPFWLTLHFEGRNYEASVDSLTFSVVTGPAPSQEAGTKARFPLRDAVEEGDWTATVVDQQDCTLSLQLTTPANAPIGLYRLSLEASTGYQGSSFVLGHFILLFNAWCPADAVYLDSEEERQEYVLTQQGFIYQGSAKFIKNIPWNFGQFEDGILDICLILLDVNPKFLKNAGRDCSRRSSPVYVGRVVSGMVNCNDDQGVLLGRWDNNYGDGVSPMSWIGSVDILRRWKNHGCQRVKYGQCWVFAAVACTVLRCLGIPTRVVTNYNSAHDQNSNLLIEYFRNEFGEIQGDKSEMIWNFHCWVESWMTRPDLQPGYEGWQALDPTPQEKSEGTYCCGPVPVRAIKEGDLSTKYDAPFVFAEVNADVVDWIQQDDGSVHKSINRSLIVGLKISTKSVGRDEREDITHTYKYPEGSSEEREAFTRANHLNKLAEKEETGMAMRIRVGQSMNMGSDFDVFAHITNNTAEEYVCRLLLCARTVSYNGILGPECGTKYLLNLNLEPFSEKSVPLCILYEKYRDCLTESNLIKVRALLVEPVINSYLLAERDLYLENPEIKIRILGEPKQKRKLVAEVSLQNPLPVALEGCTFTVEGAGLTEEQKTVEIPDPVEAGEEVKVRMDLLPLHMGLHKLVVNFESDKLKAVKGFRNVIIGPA
Test: co-IP

B1: full-length recombinant human ILK (natural protein)
chain: MDDIFTQCREGNAVAVRLWLDNTENDLNQGDDHGFSPLHWACREGRSAVVEMLIMRGARINVMNRGDDTPLHLAASHGHRDIVQKLLQYKADINAVNEHGNVPLHYACFWGQDQVAEDLVANGALVSICNKYGEMPVDKAKAPLRELLRERAEKMGQNLNRIPYKDTFWKGTTRTRPRNGTLNKHSGIDFKQLNFLTKLNENHSGELWKGRWQGNDIVVKVLKVRDWSTRKSRDFNEECPRLRIFSHPNVLPVLGACQSPPAPHPTLITHWMPYGSLYNVLHEGTNFVVDQSQAVKFALDMARGMAFLHTLEPLIPRHALNSRSVMIDEDMTARISMADVKFSFQCPGRMYAPAWVAPEALQKKPEDTNRRSADMWSFAVLLWELVTREVPFADLSNMEIGMKVALEGLRPTIPPGISPHVCKLMKICMNEDPAKRPKFDMIVPILEKMQDK
  binding result: binds
